Data on five molecules can be found in article PMC7615647, “Visualization of direct and diffusion-assisted RAD51 nucleation by full-length human BRCA2 protein” (Molecular cell, 2023).

To fix the notation:
B1: RAD51 C319S labelled with Alexa Fluor 647 C2 maleimide (natural protein, human, UniProt Q06609 1-339, looked up)
chain: MAMQMQLEANADTSVEEESFGPQPISRLEQCGINANDVKKLEEAGFHTVEAVAYAPKKELINIKGISEAKADKILAEAAKLVPMGFTTATEFHQRRSEIIQITTGSKELDKLLQGGIETGSITEMFGEFRTGKTQICHTLAVTCQLPIDRGGGEGKAMYIDTEGTFRPERLLAVAERYGLSGSDVLDNVAYARAFNTDHQTQLLYQASAMMVESRYALLIVDSATALYRTDYSGRGELSARQMHLARFLRMLLRLADEFGVAVVITNQVVAQVDGAAMFAADPKKPIGGNIIAHASTTRLYLRKGRGETRICKIYDSPSLPEAEAMFAINADGVGDAKD
modifications: Alexa Fluor 647 C2 maleimide (labelled residue not stated; protein to dye ratio 0.9-1.0)
notes: RAD51 recombinase, human, C319S variant; also called RAD51(A647); RAD-51(A647); source: E. coli BLR(DE3)pLysS (pET11c-RAD51 C319S), purified (ammonium sulphate, Q Sepharose, Heparin, Mono Q), then labelled

Data set [1] has as its target BRCA2-eGFP;RAD51(A647) (Homo sapiens;Homo sapiens) (UniProt P51587). Briefly: single-molecule optical tweezers/confocal. Particulars: EMSA: 4 nM Cy5-DNA, 20 mM HEPES pH 7.5, 1 mM MgCl2, 1 mM TCEP, 100 mM KCl, 24 C, 5 min, single-molecule (Fig 1): 100 mM NaCl, 2 mM MgCl2, 1 mM CaCl2, 2 mM ATP …. (In EMSA bound probe runs differently from free probe, usually more slowly.)

Data set [2] has as its system RAD51(A647) (Homo sapiens). In words: single-molecule optical tweezers/confocal. Particulars: biotinylated hairpin end caps, EMSA: 4 nM Cy5-DNA, 20 mM HEPES pH 7.5, 1 mM MgCl2, 1 mM TCEP, 100 mM KCl, 24 C, 5 min, single-molecule (Fig 1): 100 mM NaCl, 2 mM MgCl2, 1 mM CaCl2, 2 mM ATP ….
Data set [3] deals with T1, BRCA2-N (residues 1-2142)-eGFP (human, UniProt P51587 1-2142).
T1 construct: BRCA2, human, residues 1-2142 (N-DBD and BRC repeats 1-8; lacks C-DBD, TR2 and exC-DBR); also called N-DBD-BRC1-8 truncated protein; source: High Five insect cells, baculovirus (pFBDM-BRCA2-N, MultiBac), purified (StrepTrap, Heparin); not shown: eGFP, C-terminal, kept
In words: single-molecule confocal fluorescence imaging with dual optical trapping (C-trap); BRCA2-eGFP (full length or truncation) and 20 nM RAD51(A647) moving together on lambda dsDNA held at 10 pN; 50 mM Tris-HCl pH 7.5, 50 mM NaCl or as indicated (25-150 mM), 2 mM MgCl2, 2 mM ATP, 0.2 mg/ml BSA. To be noted: both partners purified.

Data set [4] addresses T2, BRCA2-C2 (residues 966-3418)-eGFP (human, UniProt P51587 966-3418).
T2 construct: BRCA2, human, residues 966-3418 (BRC repeats 1-8, C-DBD, TR2, full exC-DBR; lacks N-DBD); source: High Five insect cells, baculovirus (pFBDM-BRCA2-C2, MultiBac), purified (StrepTrap, Heparin); not shown: eGFP, C-terminal, kept
The description is as above. To be noted: both partners purified.

Data set [5] has as its target T3, full-length human BRCA2-eGFP (human, UniProt P51587 1-3418).
T3 construct: breast cancer susceptibility protein 2 (BRCA2), human, full length, 3,418 amino acids; Sf9 codon-optimised gene; Order on the chain: BRCA2, (alanine)8 linker, monomeric eGFP A207K (so in the source), Flag3; Eluted from FLAG resin with Flag3 peptide; no tag cleavage is described; also called BRCA2 fl; fl BRCA2; source: Sf9 insect cells, baculovirus (pFB-BRCA2-eGFP), purified (FLAG M2 agarose, SP …)
Briefly: single-molecule confocal fluorescence imaging with dual optical trapping (C-trap); 5 nM BRCA2-eGFP and 25 nM RAD51(A647) together in solution; order of their arrival on gapped lambda DNA held between beads; 50 mM Tris-HCl pH 7.5, 100 mM NaCl, 2 mM MgCl2, 1 mM CaCl2, 2 mM ATP, 0.2 mg/ml BSA; with or without 1.25 nM RPA. Particulars: both partners purified.

For data set [6], the target named is B1. Briefly: single-molecule confocal fluorescence imaging with dual optical trapping (C-trap); BRCA2-eGFP (full length or truncation) and 20 nM RAD51(A647) moving together on lambda dsDNA held at 10 pN; 50 mM Tris-HCl pH 7.5, 50 mM NaCl or as indicated (25-150 mM), 2 mM MgCl2, 2 mM ATP, 0.2 mg/ml BSA. To be noted: both partners purified.
The target in data set [7] is BRCA2-eGFP (Homo sapiens, UniProt P51587 1-3418). Briefly: EMSA; retains high ssDNA affinity; EMSA: 4 nM Cy5-DNA, 20 mM HEPES pH 7.5, 1 mM MgCl2, 1 mM TCEP, 100 mM KCl, 24 C, 5 min; single-molecule (Fig 1): 100 mM NaCl, 2 mM MgCl2, 1 mM CaCl2, 2 mM ATP. To be noted: protein: recombinant; tags: C-terminal Ala8 linker, eGFP(A207K), Flag3; label: 5'-Cy5 on strand 1; 42 bp duplex, 3' overhang on strand 1.

BRCA2-eGFP;RAD51(A647) (Homo sapiens;Homo sapiens), sequence (P51587 whole entry, looked up): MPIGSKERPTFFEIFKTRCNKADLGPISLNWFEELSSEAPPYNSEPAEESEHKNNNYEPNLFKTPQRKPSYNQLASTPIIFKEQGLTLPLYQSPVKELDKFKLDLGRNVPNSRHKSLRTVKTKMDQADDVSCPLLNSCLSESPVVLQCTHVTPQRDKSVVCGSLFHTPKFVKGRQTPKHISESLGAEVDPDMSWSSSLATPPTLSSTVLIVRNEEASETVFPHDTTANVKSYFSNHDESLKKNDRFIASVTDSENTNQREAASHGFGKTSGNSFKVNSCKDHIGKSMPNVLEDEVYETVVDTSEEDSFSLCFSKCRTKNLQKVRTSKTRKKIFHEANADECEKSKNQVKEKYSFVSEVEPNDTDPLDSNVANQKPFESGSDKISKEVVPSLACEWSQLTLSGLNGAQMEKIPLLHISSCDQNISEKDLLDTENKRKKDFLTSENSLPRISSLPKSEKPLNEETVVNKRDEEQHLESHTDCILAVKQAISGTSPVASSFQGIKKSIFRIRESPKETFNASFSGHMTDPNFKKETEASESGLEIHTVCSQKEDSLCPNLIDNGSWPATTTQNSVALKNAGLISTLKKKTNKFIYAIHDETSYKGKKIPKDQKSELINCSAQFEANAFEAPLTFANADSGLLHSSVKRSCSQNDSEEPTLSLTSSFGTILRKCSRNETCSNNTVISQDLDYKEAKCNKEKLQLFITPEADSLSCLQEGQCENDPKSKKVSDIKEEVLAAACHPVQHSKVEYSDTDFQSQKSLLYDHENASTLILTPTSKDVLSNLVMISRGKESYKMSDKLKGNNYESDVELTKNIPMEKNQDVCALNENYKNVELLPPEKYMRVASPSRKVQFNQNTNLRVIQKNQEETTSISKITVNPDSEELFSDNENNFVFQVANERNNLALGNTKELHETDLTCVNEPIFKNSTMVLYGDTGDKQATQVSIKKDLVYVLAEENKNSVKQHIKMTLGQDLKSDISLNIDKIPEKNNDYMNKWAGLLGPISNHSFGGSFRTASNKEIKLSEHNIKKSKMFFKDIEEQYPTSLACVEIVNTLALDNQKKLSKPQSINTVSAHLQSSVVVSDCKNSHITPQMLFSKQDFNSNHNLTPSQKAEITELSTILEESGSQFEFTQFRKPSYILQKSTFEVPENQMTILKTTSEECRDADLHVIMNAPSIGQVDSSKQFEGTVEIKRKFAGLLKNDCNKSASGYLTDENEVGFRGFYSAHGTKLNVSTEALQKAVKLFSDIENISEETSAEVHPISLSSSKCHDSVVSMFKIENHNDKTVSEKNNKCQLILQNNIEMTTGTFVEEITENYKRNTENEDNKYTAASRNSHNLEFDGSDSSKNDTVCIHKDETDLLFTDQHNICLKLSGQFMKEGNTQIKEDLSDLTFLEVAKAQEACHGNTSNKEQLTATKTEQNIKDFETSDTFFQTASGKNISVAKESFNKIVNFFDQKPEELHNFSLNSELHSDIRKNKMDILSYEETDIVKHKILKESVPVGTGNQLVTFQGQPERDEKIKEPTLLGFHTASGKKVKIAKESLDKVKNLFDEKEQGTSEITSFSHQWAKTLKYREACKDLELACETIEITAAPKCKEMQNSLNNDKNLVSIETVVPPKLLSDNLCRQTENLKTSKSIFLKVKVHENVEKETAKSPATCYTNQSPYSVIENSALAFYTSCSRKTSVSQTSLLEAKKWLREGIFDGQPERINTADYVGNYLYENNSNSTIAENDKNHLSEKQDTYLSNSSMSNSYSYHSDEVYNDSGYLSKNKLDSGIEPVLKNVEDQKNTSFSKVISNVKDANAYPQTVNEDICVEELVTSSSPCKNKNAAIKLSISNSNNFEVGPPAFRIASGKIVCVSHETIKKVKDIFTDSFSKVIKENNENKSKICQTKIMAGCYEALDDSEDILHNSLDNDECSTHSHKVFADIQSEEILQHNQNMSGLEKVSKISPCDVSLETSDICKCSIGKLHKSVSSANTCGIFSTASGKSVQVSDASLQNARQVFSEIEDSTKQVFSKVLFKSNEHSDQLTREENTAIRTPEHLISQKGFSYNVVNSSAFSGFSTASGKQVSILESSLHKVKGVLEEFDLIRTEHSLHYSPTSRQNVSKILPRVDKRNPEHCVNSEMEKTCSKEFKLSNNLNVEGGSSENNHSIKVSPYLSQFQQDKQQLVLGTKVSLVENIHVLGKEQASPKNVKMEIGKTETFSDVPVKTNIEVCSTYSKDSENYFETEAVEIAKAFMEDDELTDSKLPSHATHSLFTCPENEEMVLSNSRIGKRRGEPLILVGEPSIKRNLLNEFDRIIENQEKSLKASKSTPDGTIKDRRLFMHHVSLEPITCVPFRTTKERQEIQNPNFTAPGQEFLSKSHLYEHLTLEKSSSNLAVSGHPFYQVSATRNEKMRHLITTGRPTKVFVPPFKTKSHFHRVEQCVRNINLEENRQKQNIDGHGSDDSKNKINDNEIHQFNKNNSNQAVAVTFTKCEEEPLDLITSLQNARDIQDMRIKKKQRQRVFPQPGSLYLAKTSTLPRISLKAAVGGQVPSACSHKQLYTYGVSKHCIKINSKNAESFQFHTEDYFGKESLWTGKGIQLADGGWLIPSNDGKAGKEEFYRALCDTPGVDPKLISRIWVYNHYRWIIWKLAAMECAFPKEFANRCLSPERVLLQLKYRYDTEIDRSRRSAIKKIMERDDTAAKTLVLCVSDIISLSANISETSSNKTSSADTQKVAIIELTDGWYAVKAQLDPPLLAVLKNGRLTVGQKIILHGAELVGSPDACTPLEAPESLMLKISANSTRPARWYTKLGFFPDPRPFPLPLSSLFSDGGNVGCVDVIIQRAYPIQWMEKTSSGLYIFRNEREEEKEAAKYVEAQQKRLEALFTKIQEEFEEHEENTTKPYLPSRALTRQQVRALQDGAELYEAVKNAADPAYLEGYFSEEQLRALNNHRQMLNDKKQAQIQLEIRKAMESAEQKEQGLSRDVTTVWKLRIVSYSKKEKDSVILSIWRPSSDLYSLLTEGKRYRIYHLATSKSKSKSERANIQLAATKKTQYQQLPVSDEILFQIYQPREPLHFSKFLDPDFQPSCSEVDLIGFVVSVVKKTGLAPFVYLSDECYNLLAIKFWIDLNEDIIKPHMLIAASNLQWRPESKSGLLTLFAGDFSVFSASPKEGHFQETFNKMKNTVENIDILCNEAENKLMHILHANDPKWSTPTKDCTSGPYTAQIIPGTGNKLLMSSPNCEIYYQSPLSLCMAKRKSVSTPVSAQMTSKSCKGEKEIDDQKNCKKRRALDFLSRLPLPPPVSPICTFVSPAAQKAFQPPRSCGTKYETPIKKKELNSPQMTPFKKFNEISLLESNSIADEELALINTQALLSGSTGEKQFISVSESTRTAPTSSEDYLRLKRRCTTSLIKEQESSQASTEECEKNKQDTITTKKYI

gapped lambda DNA (gDNA), ssDNA gap showed a binding signal (fold nucleation rate vs RAD51 alone) in data set [1] (5 nM BRCA2-eGFP, 25 nM RAD51, 2 mM ATP, no RPA, biotinylated hairpin end caps) of 2.7. For the same molecule, the binding signal (s (RAD51 cluster dwell time)) in data set [1] (with BRCA2-eGFP, biotinylated hairpin end caps) turned out to be 102. Moreover, the binding signal (nuclei knt-1 min-1 (nucleation rate)) is 0.003 in data set [2] (1.25 nM RPA, 2 mM ATP) and 0.277 in data set [2] (25 nM RAD51, 2 mM ATP, no RPA). The molecule also showed a binding signal (s (cluster dwell time)) in data set [2] (no BRCA2) of 27.2.
In turn, “lambda dsDNA (including dsDNA arms of gDNA)” yielded a binding signal (um2 s-1 (1D diffusion coefficient)) in data set [1] (sliding on dsDNA, biotinylated ends) of 0.04.
Take B1: the binding result in data set [3], in data set [4] and in data set [5] was “binds” each time.

B2: BRCA2-C (residues 966-1596, 2477-3194, 3265-3330)-eGFP (domain or fragment, human, UniProt P51587 966-1596, looked up)
chain: TLGQDLKSDISLNIDKIPEKNNDYMNKWAGLLGPISNHSFGGSFRTASNKEIKLSEHNIKKSKMFFKDIEEQYPTSLACVEIVNTLALDNQKKLSKPQSINTVSAHLQSSVVVSDCKNSHITPQMLFSKQDFNSNHNLTPSQKAEITELSTILEESGSQFEFTQFRKPSYILQKSTFEVPENQMTILKTTSEECRDADLHVIMNAPSIGQVDSSKQFEGTVEIKRKFAGLLKNDCNKSASGYLTDENEVGFRGFYSAHGTKLNVSTEALQKAVKLFSDIENISEETSAEVHPISLSSSKCHDSVVSMFKIENHNDKTVSEKNNKCQLILQNNIEMTTGTFVEEITENYKRNTENEDNKYTAASRNSHNLEFDGSDSSKNDTVCIHKDETDLLFTDQHNICLKLSGQFMKEGNTQIKEDLSDLTFLEVAKAQEACHGNTSNKEQLTATKTEQNIKDFETSDTFFQTASGKNISVAKESFNKIVNFFDQKPEELHNFSLNSELHSDIRKNKMDILSYEETDIVKHKILKESVPVGTGNQLVTFQGQPERDEKIKEPTLLGFHTASGKKVKIAKESLDKVKNLFDEKEQGTSEITSFSHQWAKTLKYREACKDLELACETIEITAAPKCKEMQNPLDLITSLQNARDIQDMRIKKKQRQRVFPQPGSLYLAKTSTLPRISLKAAVGGQVPSACSHKQLYTYGVSKHCIKINSKNAESFQFHTEDYFGKESLWTGKGIQLADGGWLIPSNDGKAGKEEFYRALCDTPGVDPKLISRIWVYNHYRWIIWKLAAMECAFPKEFANRCLSPERVLLQLKYRYDTEIDRSRRSAIKKIMERDDTAAKTLVLCVSDIISLSANISETSSNKTSSADTQKVAIIELTDGWYAVKAQLDPPLLAVLKNGRLTVGQKIILHGAELVGSPDACTPLEAPESLMLKISANSTRPARWYTKLGFFPDPRPFPLPLSSLFSDGGNVGCVDVIIQRAYPIQWMEKTSSGLYIFRNEREEEKEAAKYVEAQQKRLEALFTKIQEEFEEHEENTTKPYLPSRALTRQQVRALQDGAELYEAVKNAADPAYLEGYFSEEQLRALNNHRQMLNDKKQAQIQLEIRKAMESAEQKEQGLSRDVTTVWKLRIVSYSKKEKDSVILSIWRPSSDLYSLLTEGKRYRIYHLATSKSKSKSERANIQLAATKKTQYQQLPVSDEILFQIYQPREPLHFSKFLDPDFQPSCSEVDLIGFVVSVVKKTGLAPFVYLSDECYNLLAIKFWIDLNEDIIKPHMLIAASNLQWRPESKSGLLTLFAGDFSVFSASPKEGHFQETFNKMKNTVENIDILCNEAENKLMHILHANDPKWSTPCKKRRALDFLSRLPLPPPVSPICTFVSPAAQKAFQPPRSCGTKYETPIKKKELNSPQMTPFKKFNE
notes: BRCA2, human, residues 966-1596 (BRC repeats 1-4); BRCA2, human, residues 2477-3194 (C-DBD); BRCA2, human, residues 3265-3330 (TR2); No linkers between the three stretches are stated; source: High Five insect cells, baculovirus (pFBDM-BRCA2-C, MultiBac), purified (StrepTrap, Heparin); not shown: eGFP, C-terminal, kept
With B2, in data set [6], the binding result is “binds”.

B3: 167mer 3' tailed DNA (mixed)
DNA 1: CTGCTTTATCAAGATAATTTTTCGACTCATCAGAAATATCCGTTTCCTATATTTATTCCTATTATGTTTTATTCATTTACTTATTCTTTATGTTCATTTTTTATATCCTTTACTTTATTTTCTCTGTTTATTCATTTACTTATTTTGTATTATCCTTATCTTATTTA
DNA 2: CGGATATTTCTGATGAGTCGAAAAATTATCTTGATAAAGCAG
As for B3, the binding result in data set [7] is “binds”.
